The record followed here is publication PMC10397247.

One experiment deals with T1, 4H3592-bN.
T1 chain: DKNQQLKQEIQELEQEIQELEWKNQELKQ
As to the kind of experiment: two-hybrid library CCNG1.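 Note: natural log of median RNA to DNA barcode read ratio; higher means stronger binding.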

For a further experiment, the target named is T2, 4H4038-bN.
T2 chain: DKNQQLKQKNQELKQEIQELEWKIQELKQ
The experiment is described as follows: two-hybrid library CCNG1.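 Note: natural log of median RNA to DNA barcode read ratio; higher means stronger binding.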

The target in a further experiment is T3, 4H3601-bN.
T3 chain: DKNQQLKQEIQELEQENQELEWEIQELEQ
The experiment is described as follows: two-hybrid library CCNG1.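 Note: natural log of median RNA to DNA barcode read ratio; higher means stronger binding.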

The target of the next experiment is T4, 4H3907-bN.
T4 chain: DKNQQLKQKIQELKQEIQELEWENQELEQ
As to the kind of experiment: two-hybrid library CCNG1.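 Note: natural log of median RNA to DNA barcode read ratio; higher means stronger binding.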

A further experiment deals with T5, 4H3613-bN.
T5 chain: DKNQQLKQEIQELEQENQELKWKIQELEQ
The experiment is described as follows: two-hybrid library CCNG1.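 Note: natural log of median RNA to DNA barcode read ratio; higher means stronger binding.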

The next experiment concerns the target T6, 4H850-bN.
T6 chain: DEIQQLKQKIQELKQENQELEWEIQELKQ
As to the kind of experiment: two-hybrid library CCNG1.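 Note: natural log of median RNA to DNA barcode read ratio; higher means stronger binding.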

The target in another experiment is T7, 4H1804-bN.
T7 chain: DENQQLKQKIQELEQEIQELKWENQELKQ
As to the kind of experiment: two-hybrid library CCNG1.

Another experiment has as its target T8, 4H906-bN.
T8 chain: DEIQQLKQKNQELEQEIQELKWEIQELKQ
The experiment is described as follows: two-hybrid library CCNG1.

Another experiment has as its target T9, 4H3129-bN.
T9 chain: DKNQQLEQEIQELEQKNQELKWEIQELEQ
The experiment is described as follows: two-hybrid library CCNG1.

A further experiment addresses T10, 4H3638-bN.
T10 chain: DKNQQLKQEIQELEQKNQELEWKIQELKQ
As to the kind of experiment: two-hybrid library CCNG1.

In the next experiment the target is T11, 4H3631-bN.
T11 chain: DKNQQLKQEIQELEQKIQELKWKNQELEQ
As to the kind of experiment: two-hybrid library CCNG1.

The next experiment addresses T12, 4H1449-bN.
T12 chain: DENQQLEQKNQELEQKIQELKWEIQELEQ
The experiment is described as follows: two-hybrid library CCNG1.

Another experiment addresses T13, 4H3817-bN.
T13 chain: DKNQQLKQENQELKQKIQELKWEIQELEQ
The experiment is described as follows: two-hybrid library CCNG1.

The target in the next experiment is T14, 4H3628-bN.
T14 chain: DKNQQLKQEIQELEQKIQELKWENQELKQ
As to the kind of experiment: two-hybrid library CCNG1.

A further experiment addresses T15, 4H619-bN.
T15 chain: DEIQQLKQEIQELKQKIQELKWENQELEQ
As to the kind of experiment: two-hybrid library CCNG1.

The target of another experiment is T16, 4H1629-bN.
T16 chain: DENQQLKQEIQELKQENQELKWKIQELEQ
The experiment is described as follows: two-hybrid library CCNG1.

In a further experiment the target is T17, 4H3858-bN.
T17 chain: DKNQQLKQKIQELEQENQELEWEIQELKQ
The experiment is described as follows: two-hybrid library CCNG1.

In another experiment the target is T18, 4H3974-bN.
T18 chain: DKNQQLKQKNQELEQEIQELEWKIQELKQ
The experiment is described as follows: two-hybrid library CCNG1.

A further experiment deals with T19, 4H1710-bN.
T19 chain: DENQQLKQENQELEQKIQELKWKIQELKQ
The experiment is described as follows: two-hybrid library CCNG1.

The target of another experiment is T20, 4H570-bN.
T20 chain: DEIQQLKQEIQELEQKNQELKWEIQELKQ
As to the kind of experiment: two-hybrid library CCNG1.

In a further experiment the target is T21, 4H3172-bN.
T21 chain: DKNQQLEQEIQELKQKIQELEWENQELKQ
As to the kind of experiment: two-hybrid library CCNG1.

For a further experiment, the target named is T22, 4H1544-bN.
T22 chain: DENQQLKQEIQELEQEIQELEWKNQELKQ
As to the kind of experiment: two-hybrid library CCNG1.

The next experiment deals with T23, 4H1985-bN.
T23 chain: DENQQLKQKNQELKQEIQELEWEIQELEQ
As to the kind of experiment: two-hybrid library CCNG1.

A further experiment addresses T24, 4H1899-bN.
T24 chain: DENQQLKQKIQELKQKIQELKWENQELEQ
As to the kind of experiment: two-hybrid library CCNG1.

The next experiment deals with T25, 4H3414-bN.
T25 chain: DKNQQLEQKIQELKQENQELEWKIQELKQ
The experiment is described as follows: two-hybrid library CCNG1.

The target of another experiment is T26, 4H584-bN.
T26 chain: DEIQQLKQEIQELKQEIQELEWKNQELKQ
The experiment is described as follows: two-hybrid library CCNG1.

The target of another experiment is T27, 4H2774-AA.
T27 chain: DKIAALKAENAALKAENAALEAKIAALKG
As to the kind of experiment: two-hybrid library CCmax. The settings on record: mean of both orientations.

Another experiment deals with T28, 4H324-AA.
T28 chain: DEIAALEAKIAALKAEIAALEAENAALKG
As to the kind of experiment: two-hybrid library CCmax. As to conditions: mean of both orientations.

The target of the next experiment is T29, 4H380-AA.
T29 chain: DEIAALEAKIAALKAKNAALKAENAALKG
As to the kind of experiment: two-hybrid library CCmax. The settings on record: mean of both orientations.

A further experiment deals with T30, 4H3449-AA.
T30 chain: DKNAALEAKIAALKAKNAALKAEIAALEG
The experiment is described as follows: two-hybrid library CCmax. The settings on record: mean of both orientations.

The target in another experiment is T31, 4H63-AA.
T31 chain: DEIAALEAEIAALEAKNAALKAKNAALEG
The experiment is described as follows: two-hybrid library CCmax. The settings on record: mean of both orientations.

The target in another experiment is T32, 4H2903-AA.
T32 chain: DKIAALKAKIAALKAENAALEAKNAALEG
The experiment is described as follows: two-hybrid library CCmax. As to conditions: mean of both orientations.

The next experiment addresses T33, 4H341-AA.
T33 chain: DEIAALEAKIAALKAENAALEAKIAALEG
As to the kind of experiment: two-hybrid library CCmax. As to conditions: mean of both orientations.

The target in the next experiment is T34, 4H1878-AA.
T34 chain: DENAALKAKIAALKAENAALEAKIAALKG
The experiment is described as follows: two-hybrid library CCmax. As to conditions: mean of both orientations.

The next experiment deals with T35, 4H2760-AA.
T35 chain: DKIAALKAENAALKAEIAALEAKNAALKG
As to the kind of experiment: two-hybrid library CCmax. As to conditions: mean of both orientations.

Another experiment has as its target T36, 4H2621-AA.
T36 chain: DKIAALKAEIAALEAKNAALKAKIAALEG
The experiment is described as follows: two-hybrid library CCmax. As to conditions: mean of both orientations.

For the next experiment, the target named is T37, 4H3049-AA.
T37 chain: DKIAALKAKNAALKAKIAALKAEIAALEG
The experiment is described as follows: two-hybrid library CCmax. The settings on record: mean of both orientations.

Another experiment addresses T38, 4H1593-AA.
T38 chain: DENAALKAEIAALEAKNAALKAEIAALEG
The experiment is described as follows: two-hybrid library CCmax. The settings on record: mean of both orientations.

Another experiment concerns the target T39, 4H432-AA.
T39 chain: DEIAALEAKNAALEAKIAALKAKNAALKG
The experiment is described as follows: two-hybrid library CCmax. As to conditions: mean of both orientations.

The target of the next experiment is T40, 4H3094-AA.
T40 chain: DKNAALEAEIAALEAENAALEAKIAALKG
The experiment is described as follows: two-hybrid library CCmax. As to conditions: mean of both orientations.

Another experiment concerns the target T41, 4H249-AA.
T41 chain: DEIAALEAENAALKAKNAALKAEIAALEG
As to the kind of experiment: two-hybrid library CCmax.

For another experiment, the target named is T42, 4H3974-AA.
T42 chain: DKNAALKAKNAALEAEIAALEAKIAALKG
The experiment is described as follows: two-hybrid library CCmax. As to conditions: mean of both orientations.

The target of another experiment is T43, 4H2580-AA.
T43 chain: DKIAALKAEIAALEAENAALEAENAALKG
As to the kind of experiment: two-hybrid library CCmax. As to conditions: mean of both orientations.

The target in the next experiment is T44, 4H3629-AA.
T44 chain: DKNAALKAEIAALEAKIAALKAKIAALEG
As to the kind of experiment: two-hybrid library CCmax. As to conditions: mean of both orientations.

A further experiment deals with T45, 4H2604-AA.
T45 chain: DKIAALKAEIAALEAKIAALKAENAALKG
As to the kind of experiment: two-hybrid library CCmax. As to conditions: mean of both orientations.

For another experiment, the target named is T46, 4H2947-AA.
T46 chain: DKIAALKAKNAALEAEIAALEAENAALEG
The experiment is described as follows: two-hybrid library CCmax. The settings on record: mean of both orientations.

Another experiment has as its target T47, 4H2961-AA.
T47 chain: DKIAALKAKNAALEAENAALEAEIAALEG
As to the kind of experiment: two-hybrid library CCmax. The settings on record: mean of both orientations.

Another experiment concerns the target T48, 4H446-AA.
T48 chain: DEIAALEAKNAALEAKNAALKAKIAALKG
The experiment is described as follows: two-hybrid library CCmax. As to conditions: mean of both orientations.

Another experiment has as its target T49, 4H1449-AA.
T49 chain: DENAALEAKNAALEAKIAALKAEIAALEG
As to the kind of experiment: two-hybrid library CCmax. As to conditions: mean of both orientations.

The target of a further experiment is T50, 4H3915-AA.
T50 chain: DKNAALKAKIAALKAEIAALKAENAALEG
As to the kind of experiment: two-hybrid library CCmax. The settings on record: mean of both orientations.

The next experiment addresses T51, 4H3619-AA.
T51 chain: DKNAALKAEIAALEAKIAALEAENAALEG
The experiment is described as follows: two-hybrid library CCmax. As to conditions: mean of both orientations.

The target of another experiment is T52, 4H1384-AA.
T52 chain: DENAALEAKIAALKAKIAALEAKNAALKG
As to the kind of experiment: two-hybrid library CCmax.

In another experiment the target is T53, 4H3777-AA.
T53 chain: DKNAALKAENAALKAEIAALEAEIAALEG
The experiment is described as follows: two-hybrid library CCmax. The settings on record: mean of both orientations.

The target of another experiment is T54, 4H235-AA.
T54 chain: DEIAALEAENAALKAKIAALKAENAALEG
As to the kind of experiment: two-hybrid library CCmax. The settings on record: mean of both orientations.

As to DKNQQLKQEIQELEQEIQELEWKNQELKQ [4H3592-bN], the interaction score was -0.397 with 4H3592-bN, -0.372 with 4H4038-bN, -0.0551 with 4H3601-bN and -1.47 with 4H3907-bN.
For DENQQLEQKNQELEQKIQELKWEIQELEQ [4H1449-bN], the interaction score with 4H3613-bN was -1.42; with 4H850-bN, -1.83; in the experiment with 4H1804-bN, -2.5; with 4H906-bN, -1.69; in the experiment with 4H3129-bN it was -2.48; with 4H3638-bN, -1.08. The interaction score with 4H3631-bN is -0.391; with 4H1449-bN, -0.847; with 4H3817-bN, -1.76; in the experiment with 4H3628-bN, -0.461; in the experiment with 4H619-bN, -0.984; with 4H1629-bN, -0.745. For the same molecule, the interaction score with 4H3858-bN is -0.776; with 4H3974-bN it was 1.15; in the experiment with 4H1710-bN, -0.246; with 4H570-bN, -0.581; with 4H3172-bN it was -0.588; in the experiment with 4H1544-bN, -1.72. Moreover, the interaction score in the experiment with 4H1985-bN is -1.29; in the experiment with 4H1899-bN, -0.773; in the experiment with 4H3414-bN it was -0.742; in the experiment with 4H584-bN, -0.471.
Consider DENAALEAKIAALKAKIAALEAKNAALKG [4H1384-AA], for which the interaction score was -1.81 in the experiment with 4H2774-AA; 0.82 with 4H324-AA; -1.4 in the experiment with 4H380-AA; -1.82 in the experiment with 4H3449-AA; -0.475 with 4H63-AA; -0.437 with 4H2903-AA. In addition, the interaction score was -0.177 with 4H341-AA; -1.08 in the experiment with 4H1878-AA; -1.74 with 4H2760-AA; -0.862 with 4H2621-AA; -0.361 in the experiment with 4H3049-AA; -1.48 with 4H1593-AA. In addition, the interaction score was -1.33 in the experiment with 4H432-AA; -0.731 in the experiment with 4H3094-AA; -1.81 with 4H249-AA; 0.121 with 4H3974-AA; 0.35 in the experiment with 4H2580-AA; 0.973 with 4H3629-AA. Also, the interaction score with 4H2604-AA was 1.45; in the experiment with 4H2947-AA, -1.05; with 4H2961-AA it was -1.37; with 4H446-AA, -2.33; with 4H1449-AA it was -1.1; in the experiment with 4H3915-AA, -0.264. The interaction score in the experiment with 4H3619-AA is 2.13; in the experiment with 4H1384-AA, 0.25; with 4H3777-AA, 0.578; in the experiment with 4H235-AA, -1.3.
